In patent publication US20260265321A1, “PEPTIDE AND POLYPEPTIDE INHIBITING THE NF-KB SIGNALING PATHWAY” (Centre National de la Recherche Scientifique, priority 2023, published 2026):
Residues, ends and D or L forms follow the SMILES beside them.

T1: IKKα(10-667) EE homodimer (Homo sapiens, UniProt O15111, S176E/S180E)
T1 construct: an equivalent construct of the IKKα homodimer (i.e. IKKα(10-667) S176E/S180E, named IKKα(10-667) EE hereafter); 6×His (followed by TEV site) (N, cleaved yes); made in house; host or cells: Sf21 insect cells (baculovirus)
T1 sequence (O15111 10-667 S176E/S180E): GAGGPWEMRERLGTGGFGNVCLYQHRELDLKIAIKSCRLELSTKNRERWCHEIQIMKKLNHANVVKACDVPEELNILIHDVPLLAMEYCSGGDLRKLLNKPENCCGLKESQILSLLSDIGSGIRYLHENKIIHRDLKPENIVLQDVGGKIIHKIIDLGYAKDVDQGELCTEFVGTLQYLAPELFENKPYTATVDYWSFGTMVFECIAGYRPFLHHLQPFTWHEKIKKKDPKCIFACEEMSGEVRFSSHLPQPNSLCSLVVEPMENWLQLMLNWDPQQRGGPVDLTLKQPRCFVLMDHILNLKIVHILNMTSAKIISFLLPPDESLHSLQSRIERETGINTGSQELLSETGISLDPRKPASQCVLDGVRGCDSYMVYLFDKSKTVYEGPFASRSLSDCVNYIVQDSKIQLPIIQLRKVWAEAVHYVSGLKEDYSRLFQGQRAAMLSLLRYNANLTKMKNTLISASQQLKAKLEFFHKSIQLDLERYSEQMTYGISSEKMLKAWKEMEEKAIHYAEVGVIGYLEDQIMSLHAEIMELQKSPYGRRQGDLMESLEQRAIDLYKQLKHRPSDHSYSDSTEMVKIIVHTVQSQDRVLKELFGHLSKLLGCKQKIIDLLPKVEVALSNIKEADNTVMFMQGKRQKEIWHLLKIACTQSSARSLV

T2: IKKα(10-667) S176E/S180E homodimer, 6×His tag removed (human, UniProt O15111 10-667)
T2 construct: also called purified IKKα
T2 sequence (looked up): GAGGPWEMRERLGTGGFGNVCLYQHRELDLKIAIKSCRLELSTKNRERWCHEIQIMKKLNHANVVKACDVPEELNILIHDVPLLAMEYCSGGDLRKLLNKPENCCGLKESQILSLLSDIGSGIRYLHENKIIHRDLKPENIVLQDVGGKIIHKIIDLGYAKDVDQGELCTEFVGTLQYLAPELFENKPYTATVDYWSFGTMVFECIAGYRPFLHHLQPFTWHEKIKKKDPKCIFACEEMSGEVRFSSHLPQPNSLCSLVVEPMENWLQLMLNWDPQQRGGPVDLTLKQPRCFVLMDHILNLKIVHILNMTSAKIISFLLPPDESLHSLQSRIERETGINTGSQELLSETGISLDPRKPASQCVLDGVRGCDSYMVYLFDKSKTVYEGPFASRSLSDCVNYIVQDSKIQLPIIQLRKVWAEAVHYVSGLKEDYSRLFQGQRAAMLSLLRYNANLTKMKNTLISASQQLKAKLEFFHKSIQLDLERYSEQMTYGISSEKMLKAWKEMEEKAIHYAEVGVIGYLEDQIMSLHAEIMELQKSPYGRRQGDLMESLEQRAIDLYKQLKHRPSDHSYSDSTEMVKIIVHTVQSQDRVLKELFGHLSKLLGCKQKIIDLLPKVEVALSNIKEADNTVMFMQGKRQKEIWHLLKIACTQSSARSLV

T3: IKKβ(1-669) S177E/S181E homodimer, 6×His tag removed (human, UniProt O14920 1-669)
T3 sequence (looked up): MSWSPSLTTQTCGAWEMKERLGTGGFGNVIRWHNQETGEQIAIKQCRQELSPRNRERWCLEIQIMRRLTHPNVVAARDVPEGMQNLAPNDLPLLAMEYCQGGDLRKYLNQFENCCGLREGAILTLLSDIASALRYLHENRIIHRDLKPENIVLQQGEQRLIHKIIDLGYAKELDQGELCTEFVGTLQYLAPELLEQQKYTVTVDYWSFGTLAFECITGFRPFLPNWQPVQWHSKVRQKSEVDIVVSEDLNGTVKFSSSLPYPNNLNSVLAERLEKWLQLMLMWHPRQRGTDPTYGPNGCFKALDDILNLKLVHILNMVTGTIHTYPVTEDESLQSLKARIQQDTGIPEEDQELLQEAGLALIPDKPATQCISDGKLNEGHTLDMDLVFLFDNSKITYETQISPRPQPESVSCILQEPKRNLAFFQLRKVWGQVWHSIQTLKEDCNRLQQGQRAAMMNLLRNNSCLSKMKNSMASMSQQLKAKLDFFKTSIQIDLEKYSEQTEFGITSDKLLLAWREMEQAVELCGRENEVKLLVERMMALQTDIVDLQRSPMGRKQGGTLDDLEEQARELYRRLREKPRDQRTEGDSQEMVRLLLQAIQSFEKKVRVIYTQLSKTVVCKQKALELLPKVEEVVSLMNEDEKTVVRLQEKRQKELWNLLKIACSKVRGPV


Experiments:
[1] = target: T1, IKKα(10-667) EE homodimer; assay: Isothermal titration calorimetry (ITC) of peptide binding to IKKα homodimer; details: 25° C.; for N (binding stoichiometry of IKKα: pep): 1:1 binding model; for TΔS / ΔG / ΔH: IKKα
Protocol: All experiments were performed in ITC buffer (20 mM HEPES pH 8.0, 150 mM NaCl, 1 mM TCEP) unless otherwise stated. Purified IKKα(10-667) EE and IKKβ(1-669) EE protein samples were dialyzed overnight against ITC buffer at 4° C. Just before the ITC experiments, IKKα or IKKβ samples were concentrated, incubated at room temperature for 30 minutes and centrifuged at 11000 g to remove eventual precipitate. The final concentrations of IKKα and IKKβ in the sample cell varied between 22 and 50 μM depending on the measurement. HPLC purified synthetic peptides (IκBα pep) comprising residues 297-317 of IκBα were further desalted using a Nap5 (GE Healthcare, #17-0853-01) column equilibrated in milliQ water, lyophilized and then resuspended in ITC buffer. The concentration of peptides in the syringe varied between 220 and 975 μM depending on the measurement.
All ITC measurements were performed using a PEAQ-ITC MALVERN instrument. The titration parameters were set as following: temperature 25° C., reference power 10 μcal/s, feedback=high, stirring speed 750 RPM, initial delay 60 s, first injection 0.4 μl in 0.8 s and the remaining 19 injections were 2 μL in 4 s with 120 s of spacing. The data were fitted to a 1:1 binding model. All data were processed using NITPIC software and global fitting of two datasets was carried out using SEDPHAD.
To evaluate binding affinities, isothermal titration calorimetry (ITC) experiments were performed using a synthetic peptide that comprises the YDDφXφ motif plus the N-terminal acidic patch (residues 297-317, named IκBα pep hereafter) and purified IKKβ(1-669) EE homodimer or an equivalent construct of the IKKα homodimer (i.e. IKKα(10-667) S176E/S180E, named IKKα(10-667) EE hereafter). […] ITC analyses on the IKKα/β heterodimer were prevented by strong aggregation propensity at the concentrations required for these experiments.
All ITC experiments were performed at 25° C. The data were fitted to a 1:1 binding model. N refers to the binding stoichiometry of IKKα/β: pep, meaning that approximately half of total IKKα/β concentration binds pep ligand in agreement with the dimer form of IKKα/β being binding competent. The values for the IKKα interaction with IRF7 pep should be regarded as estimates due to low affinity and weakly exothermic binding, and therefore high experimental error and fitting uncertainty. All data were processed using NITPIC software and global fitting of two datasets was carried out using SEDPHAD.

[2] = target: T2, IKKα(10-667) S176E/S180E homodimer, …; assay: ITC, 25 °C, synthetic peptide into IKK homodimer, 1:1 model
Protocol: (§1) All experiments were performed in ITC buffer (20 mM HEPES pH 8.0, 150 mM NaCl, 1 mM TCEP) unless otherwise stated. […] Just before the ITC experiments, IKKα or IKKβ samples were concentrated, incubated at room temperature for 30 minutes and centrifuged at 11000 g to remove eventual precipitate. The final concentrations of IKKα and IKKβ in the sample cell varied between 22 and 50 μM depending on the measurement. […] The concentration of peptides in the syringe varied between 220 and 975 μM depending on the measurement.
(§2) All ITC experiments were performed at 25° C. The data were fitted to a 1:1 binding model. […] All data were processed using NITPIC software and global fitting of two datasets was carried out using SEDPHAD.

[3] = target: T3, IKKβ(1-669) S177E/S181E homodimer, …; assay: as above
Protocol: as §1, §2

Row | Molecule | N (binding stoichiometry of IKKα: pep) [1] | TΔS [1] [kcal/mol] | ΔG [1] [kcal/mol] | ΔH [1] [kcal/mol] | N (binding stoichiometry) [2] | TΔS [2] [kcal/mol] | ΔG [2] [kcal/mol] | ΔH [2] [kcal/mol] | N (binding stoichiometry) [3] | TΔS [3] [kcal/mol] | ΔG [3] [kcal/mol] | ΔH [3] [kcal/mol] | Kd [2] [µM]
1 | CC[C@H](C)[C@H](NC(=O)[C@H](CC(=O)O)NC(=O)[C@H](CC(=O)O)NC(=O)[C@H](Cc1ccc(O)cc1)NC(=O)[C@H](CC(C)C)NC(=O)[C@H](CO)NC(=O)[C@H](CC(N)=O)NC(=O)[C@H](C)NC(=O)[C@H](CO)NC(=O)[C@H](CO)NC(=O)[C@@H](N)CC(C)C)C(=O)N[C@@H](CCC(=O)O)C(=O)N[C@@H](CS)C(=O)N[C@@H](Cc1ccccc1)C(=O)N[C@@H](CC(C)C)C(=O)N[C@@H](CCSC)C(=O)N[C@@H](CCC(=O)O)C(=O)N[C@@H](CC(C)C)C(=O)N[C@@H](CCC(=O)O)C(=O)N[C@@H](CCC(N)=O)C(=O)N1CCC[C@H]1C(=O)N[C@@H](C)C(=O)O [IRF7 pep] (H-LSSANSLYDDIECFLMELEQPA-OH; N-terminus and C-terminus assumed) | 0.6 | -1.2 | -5.5 | -6.7 |  |  |  |  |  |  |  |  | 
2 | CC[C@H](C)[C@H](NC(=O)CNC(=O)[C@H](CC(=O)O)NC(=O)[C@H](CC(C)C)NC(=O)CN)C(=O)N[C@H](C(=O)N[C@@H](CCC(=O)O)C(=O)N[C@@H](Cc1ccc(O)cc1)C(=O)N[C@@H](CC(=O)O)C(=O)N[C@@H](CC(=O)O)C(=O)N[C@@H](Cc1ccccc1)C(=O)N[C@@H](CCCCN)C(=O)N[C@@H](CC(C)C)C(=O)N[C@@H](CC(N)=O)C(=O)N[C@@H](CO)C(=O)N[C@@H](CO)C(=O)N[C@H](C(=O)N[C@H](C(=O)N[C@@H](CCC(=O)O)C(=O)N1CCC[C@H]1C(=O)N[C@@H](CCCCN)C(=O)N[C@@H](CCC(=O)O)C(=O)O)C(C)C)[C@@H](C)CC)[C@@H](C)CC [p100 pep] (H-GLDGIIEYDDFKLNSSIVEPKE-OH; N-terminus and C-terminus assumed) | 0.60 | -5.56 | -6.77 | -12.3 |  |  |  |  |  |  |  |  | 

Other lines, results leading:

Row | N (binding stoichiometry of IKKα: pep) [1] | TΔS [1] [kcal/mol] | ΔG [1] [kcal/mol] | ΔH [1] [kcal/mol] | N (binding stoichiometry) [2] | TΔS [2] [kcal/mol] | ΔG [2] [kcal/mol] | ΔH [2] [kcal/mol] | N (binding stoichiometry) [3] | TΔS [3] [kcal/mol] | ΔG [3] [kcal/mol] | ΔH [3] [kcal/mol] | Kd [2] [µM] | Molecule
3 |  |  |  |  | 0.62 | -8.35 | -6.88 | -15.2 | 0.58 | -9.78 | -6 | -15.8 |  | EFTEDELPYDDCVFGGQRLTL (HPLC purified synthetic peptide; also called IkBα pep wt; P1) [synthetic IκBα pep wt (residues 297-317 of IκBα)]
4 |  |  |  |  | 0.6 | -5.56 | -6.77 | -12.3 |  |  |  |  | 11 | GLDGIIEYDDFKLNSSIVEPKE [synthetic p100 pep]
